Experiments:
[1] = target: PfHsp70-x-C (27–679) (P. falciparum)
[2] = target: PfHsp70-x-S (30–412) (P. falciparum)
[3] = target: PfHsp70-x-C (27–679) (P. falciparum); remark: listed apart in the source
[4] = target: PfHsp70-x-S (30–412) (P. falciparum); remark: listed apart in the source
[5] = target: PfHsp70-x-C (27–679) (P. falciparum); experiment: pull-down; PfHsp70-x-C cross-linked to coupling resin, increasing PFA0660w-C (1.4286-28.5714 µM), without ATP; band densities on SDS-PAGE, nonlinear regression
[6] = target: PfHsp70-x-C (27–679) (P. falciparum); experiment: pull-down; PfHsp70-x-C cross-linked to coupling resin, increasing PFA0660w-C (1.4286-28.5714 µM), with 1 mM ATP; band densities on SDS-PAGE, nonlinear regression
[7] = target: PfHsp70-x-C (27–679) (P. falciparum); experiment: BLI; Octet K2, 25 °C; His-tagged PfHsp70-x-C loaded on Ni-NTA biosensors, ATS as analyte (1.563-6.25 µM); steady-state analysis, 1:1 model

Substance	MDH aggregation suppression (absorbance at 360 nm, 48 °C): percent MDH aggregation with PFA0660w-C and PfHsp70-x-C together [1]	MDH aggregation suppression (absorbance at 360 nm, 48 °C): percent MDH aggregation with PFA0660w-C and PfHsp70-x-S together [2]	beta galactosidase refolding: recovered enzyme activity with PFA0660w-C and PfHsp70-x-C together [3]	beta galactosidase refolding: recovered enzyme activity with PFA0660w-C and PfHsp70-x-S together [4]	Kd [5]	Kd [6]	Kd [7]
PFA0660w-C (81–386) (domain or fragment)	10.7%	18.2%	66.7%	34.7%	5.58 µM	781 nM	
acidic terminal segment (ATS) domain of PfEMP1 (PF08_0141) (domain or fragment)							180 µM
